Laboratory results reported in article PMC9482650, “Quantitative fragmentomics allow affinity mapping of interactomes” (Nature Communications, 2022).
One block for each binder: values may come before it.

Assays:
Assay in all cases: holdup assay
Set-up in all cases: key: below the threshold = too weak to quantify, mostly under pKd 3.1 to 4
[1] = target: GRASP, Q7Z6J2
[2] = target: T1, SNTA1, Q13424
T1 sequence (Q13424 82-180, limits assumed, looked up): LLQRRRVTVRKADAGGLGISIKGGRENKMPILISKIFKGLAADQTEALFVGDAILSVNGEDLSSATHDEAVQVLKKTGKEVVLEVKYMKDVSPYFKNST

[3] = target: T2, GRIP1_2, Q9Y3R0
T2 sequence (Q9Y3R0 145-248, limits assumed, looked up): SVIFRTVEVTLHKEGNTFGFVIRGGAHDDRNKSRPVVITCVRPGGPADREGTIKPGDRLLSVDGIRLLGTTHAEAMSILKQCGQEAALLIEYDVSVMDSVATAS

[4] = target: DLG2_2, Q15700
[5] = target: SCRIB_1, Q14160
[6] = target: LNX1_2, Q8TBB1
[7] = target: GORASP2, Q9H8Y8
[8] = target: T3, HTRA4, P83105
T3 sequence (P83105 378-476, limits assumed, looked up): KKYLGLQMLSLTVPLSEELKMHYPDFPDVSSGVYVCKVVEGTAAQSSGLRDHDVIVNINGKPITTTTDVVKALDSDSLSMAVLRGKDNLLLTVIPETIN

[9] = target: T4, FRMPD1, Q5SYB0
T4 sequence (Q5SYB0 52-145, limits assumed, looked up): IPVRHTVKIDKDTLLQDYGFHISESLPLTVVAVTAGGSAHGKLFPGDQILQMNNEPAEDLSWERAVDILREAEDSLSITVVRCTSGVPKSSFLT

[10] = target: MAGI1_1, Q96QZ7
[11] = target: T5, DFNB31_3, Q9P202
T5 sequence (Q9P202 811-907, limits assumed, looked up): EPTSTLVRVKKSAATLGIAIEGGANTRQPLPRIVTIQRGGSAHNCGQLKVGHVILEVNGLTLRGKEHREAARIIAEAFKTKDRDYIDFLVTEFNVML

[12] = target: T6, APBA1_1, Q02410
T6 sequence (Q02410 651-752, limits assumed, looked up): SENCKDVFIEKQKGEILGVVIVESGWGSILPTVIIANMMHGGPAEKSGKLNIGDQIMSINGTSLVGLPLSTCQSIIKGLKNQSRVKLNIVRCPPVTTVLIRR

[13] = target: GRIP2_7, Q9C0E4
[14] = target: T7, MPP2, Q14168
T7 sequence (Q14168 180-250, limits assumed, looked up): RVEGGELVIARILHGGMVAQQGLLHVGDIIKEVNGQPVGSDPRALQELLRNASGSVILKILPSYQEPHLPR

[15] = target: T8, PARD3B_1, Q8TEW8
T8 sequence (Q8TEW8 196-299, limits assumed, looked up): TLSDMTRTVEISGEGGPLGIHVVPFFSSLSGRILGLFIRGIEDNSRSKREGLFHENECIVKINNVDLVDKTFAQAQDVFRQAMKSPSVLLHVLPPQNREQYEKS

[16] = target: T9, LIN7A, O14910
T9 sequence (O14910 103-200, limits assumed, looked up): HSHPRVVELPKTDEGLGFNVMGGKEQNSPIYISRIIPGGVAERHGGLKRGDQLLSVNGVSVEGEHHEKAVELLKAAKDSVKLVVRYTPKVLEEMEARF

[17] = target: T10, APBA2_2, Q99767
T10 sequence (Q99767 654-744, limits assumed, looked up): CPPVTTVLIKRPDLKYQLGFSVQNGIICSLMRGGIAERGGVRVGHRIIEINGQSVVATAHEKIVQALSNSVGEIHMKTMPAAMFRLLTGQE

[18] = target: T11, DFNB31_2, Q9P202
T11 sequence (Q9P202 274-371, limits assumed, looked up): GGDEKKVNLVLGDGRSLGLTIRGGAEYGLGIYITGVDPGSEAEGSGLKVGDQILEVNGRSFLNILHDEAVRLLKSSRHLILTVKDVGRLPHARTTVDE

[19] = target: MAGI2_6, Q86UL8
[20] = target: FRMPD4, Q14CM0
[21] = target: MAGI2_4, Q86UL8
[22] = target: HTRA1, Q92743
[23] = target: T12, DLG3_1, Q92796
T12 sequence (Q92796 125-227, limits assumed, looked up): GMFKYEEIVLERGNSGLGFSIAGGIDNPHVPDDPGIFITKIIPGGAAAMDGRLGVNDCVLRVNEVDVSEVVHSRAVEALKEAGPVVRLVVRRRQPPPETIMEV

[24] = target: MAST2, Q6P0Q8
[25] = target: IL16_3, Q14005
[26] = plain residues with an end cap or a label only (N-terminal biotin on a linker: ahx)
[27] = plain residues with an end cap or a label only (N-terminal biotin on a linker: ttds)
[28] = plain residues with an end cap or a label only (N-terminal biotin on a linker: ado-ado)

LNX1_2, Q8TBB1, sequence (Q8TBB1 371-470): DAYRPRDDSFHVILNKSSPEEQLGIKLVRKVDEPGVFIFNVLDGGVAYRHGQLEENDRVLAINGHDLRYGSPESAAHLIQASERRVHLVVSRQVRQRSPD
MAGI1_1, Q96QZ7, sequence (Q96QZ7 1-106): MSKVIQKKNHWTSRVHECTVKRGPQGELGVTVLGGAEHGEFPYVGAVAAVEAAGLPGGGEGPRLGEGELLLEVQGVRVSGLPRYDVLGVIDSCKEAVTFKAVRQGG
IL16_3, Q14005, sequence (Q14005 1107-1207): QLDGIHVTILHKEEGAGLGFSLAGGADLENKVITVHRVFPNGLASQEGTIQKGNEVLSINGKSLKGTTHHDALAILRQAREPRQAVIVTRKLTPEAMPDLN
HTRA1, Q92743, sequence (Q92743 360-477): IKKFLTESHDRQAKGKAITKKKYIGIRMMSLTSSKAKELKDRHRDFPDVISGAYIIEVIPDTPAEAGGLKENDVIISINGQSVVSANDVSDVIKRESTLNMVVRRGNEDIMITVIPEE
MAGI2_4, Q86UL8, sequence (Q86UL8 772-865): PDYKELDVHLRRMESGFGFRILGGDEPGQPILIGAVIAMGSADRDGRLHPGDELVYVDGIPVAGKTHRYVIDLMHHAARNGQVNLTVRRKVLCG
DLG2_2, Q15700, sequence (Q15700 189-283): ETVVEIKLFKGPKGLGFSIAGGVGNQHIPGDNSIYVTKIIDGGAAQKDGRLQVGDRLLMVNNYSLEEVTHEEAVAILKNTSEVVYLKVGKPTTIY
FRMPD4, Q14CM0, sequence (Q14CM0 67-160): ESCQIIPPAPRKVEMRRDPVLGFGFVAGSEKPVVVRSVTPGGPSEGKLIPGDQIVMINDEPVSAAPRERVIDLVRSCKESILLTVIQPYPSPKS
MAGI2_6, Q86UL8, sequence (Q86UL8 1141-1229): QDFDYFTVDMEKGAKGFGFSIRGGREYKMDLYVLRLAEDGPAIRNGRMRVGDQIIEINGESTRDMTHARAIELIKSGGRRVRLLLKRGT
GRIP2_7, Q9C0E4, sequence (Q9C0E4 934-1023): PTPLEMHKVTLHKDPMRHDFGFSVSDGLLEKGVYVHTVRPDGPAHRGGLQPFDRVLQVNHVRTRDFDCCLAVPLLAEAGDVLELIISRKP
MAST2, Q6P0Q8, sequence (Q6P0Q8 1099-1202): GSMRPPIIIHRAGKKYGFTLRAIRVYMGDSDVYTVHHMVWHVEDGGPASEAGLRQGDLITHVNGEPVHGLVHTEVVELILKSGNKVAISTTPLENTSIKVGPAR
SCRIB_1, Q14160, sequence (Q14160 718-814): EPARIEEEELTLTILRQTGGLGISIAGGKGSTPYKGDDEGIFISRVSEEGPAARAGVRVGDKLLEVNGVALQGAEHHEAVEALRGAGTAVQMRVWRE
GRASP, Q7Z6J2, sequence (Q7Z6J2 96-193): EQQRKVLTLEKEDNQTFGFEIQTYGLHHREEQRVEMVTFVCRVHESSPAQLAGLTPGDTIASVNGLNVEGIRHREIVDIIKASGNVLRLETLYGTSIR

B3: NRXN3_rs746444206, Q9Y4C0 (peptide)
chain: QKNKDKEYYV
- pKd [1, 28]: below the threshold
- pKd [2, 28]: 3.78
- pKd [3, 28]: below the threshold
- pKd [4, 28]: below the threshold
- pKd [5, 28]: below the threshold
- pKd [6, 28]: 4
- pKd [7, 28]: 4.47
- pKd [8, 28]: below the threshold
- pKd [9, 28]: below the threshold
- pKd [10, 28]: below the threshold
- pKd [11, 28]: 3.82
- pKd [12, 28]: below the threshold
- pKd [13, 28]: 4.8
- pKd [14, 28]: 4.12
- pKd [15, 28]: 3.84
- pKd [16, 28]: below the threshold
- pKd [17, 28]: below the threshold
- pKd [18, 28]: below the threshold
- pKd [19, 28]: below the threshold
- pKd [20, 28]: 4.18
- pKd [21, 28]: 3.54
- pKd [22, 28]: 5.32
- pKd [23, 28]: below the threshold
- pKd [24, 28]: 3.97
- pKd [25, 28]: below the threshold

B4: NHERF3, Q5T2W1 (peptide)
chain: SSSNSEDTEM
- pKd [1, 26]: below the threshold
- pKd [2, 26]: below the threshold
- pKd [3, 26]: below the threshold
- pKd [4, 26]: below the threshold
- pKd [5, 26]: below the threshold
- pKd [6, 26]: below the threshold
- pKd [7, 26]: below the threshold
- pKd [8, 26]: below the threshold
- pKd [9, 26]: below the threshold
- pKd [10, 26]: below the threshold
- pKd [11, 26]: below the threshold
- pKd [12, 26]: below the threshold
- pKd [13, 26]: below the threshold
- pKd [14, 26]: below the threshold
- pKd [15, 26]: below the threshold
- pKd [16, 26]: below the threshold
- pKd [17, 26]: below the threshold
- pKd [18, 26]: below the threshold
- pKd [19, 26]: below the threshold
- pKd [20, 26]: below the threshold
- pKd [21, 26]: below the threshold
- pKd [22, 26]: below the threshold
- pKd [23, 26]: below the threshold
- pKd [24, 26]: 4.5
- pKd [25, 26]: below the threshold

Other lines, results leading:

- pKd [1, 26]: below the threshold
- pKd [2, 26]: below the threshold
- pKd [3, 26]: below the threshold
- pKd [4, 26]: below the threshold
- pKd [5, 26]: 3.58
- pKd [6, 26]: below the threshold
- pKd [7, 26]: 3.52
- pKd [8, 26]: below the threshold
- pKd [9, 26]: below the threshold
- pKd [10, 26]: below the threshold
- pKd [11, 26]: below the threshold
- pKd [12, 26]: 3.63
- pKd [13, 26]: below the threshold
- pKd [14, 26]: below the threshold
- pKd [15, 26]: 3.75
- pKd [16, 26]: below the threshold
- pKd [17, 26]: below the threshold
- pKd [18, 26]: below the threshold
- pKd [19, 26]: below the threshold
- pKd [20, 26]: 3.64
- pKd [21, 26]: 3.55
- pKd [22, 26]: 3.62
- pKd [23, 26]: below the threshold
- pKd [24, 26]: 4.08
- pKd [25, 26]: below the threshold
B1: ADRB2, P07550 (peptide)
chain: RNCSTNDSLL

- pKd [1, 27]: 4.17
- pKd [2, 27]: below the threshold
- pKd [3, 27]: below the threshold
- pKd [4, 27]: 3.59
- pKd [5, 27]: below the threshold
- pKd [6, 27]: below the threshold
- pKd [7, 27]: 4.21
- pKd [8, 27]: below the threshold
- pKd [9, 27]: 3.73
- pKd [10, 27]: below the threshold
- pKd [11, 27]: below the threshold
- pKd [12, 27]: below the threshold
- pKd [13, 27]: 3.64
- pKd [14, 27]: below the threshold
- pKd [15, 27]: below the threshold
- pKd [16, 27]: below the threshold
- pKd [17, 27]: below the threshold
- pKd [18, 27]: below the threshold
- pKd [19, 27]: below the threshold
- pKd [20, 27]: below the threshold
- pKd [21, 27]: below the threshold
- pKd [22, 27]: below the threshold
- pKd [23, 27]: below the threshold
- pKd [24, 27]: 4.36
- pKd [25, 27]: below the threshold
B2: DGKK, Q5KSL6 (peptide)
chain: DPLTPSRSQL
